{
  "source": "paper PMC9122090",
  "about": "(Structure (London, England : 1993), 2021)",
  "binders": {"B1": {"name": "N-terminally AVI-tagged, biotinylated Nes1G SR17–18 (residues 1976–2200) (domain or fragment, human, UniProt Q8NF91 1976-2200, looked up)", "chain": "LAVLKKAFQDQKEELLKSIEDIEERTDKERLKEPTRQALQQRLRVFNQLEDELNSHEHELCWLKDKAKQIAQKDVAFAPEVDREINRLEVTWDDTKRLIHENQGQCCGLIDLMREYQNLKSAVSKVLENASSVIVTRTTIKDQEDLKWAFSKHETAKNKMNYKQKDLDNFTSKGKHLLSELKKIHSSDFSLVKTDMESTVDKWLDVSEKLEENMDRLRVSLSIWD", "modifications": "biotin on the AVI sequence"}, "B2": {"name": "Nes2G SR11–12 (human nesprin-2 giant residues 1425–1649) (domain or fragment, UniProt Q8WXH0-1 1425-1649, looked up)", "chain": "ENKLLEACIFKNNELLKNIQDVQSQISKIGLKDPTVPAVKHRKKSLIRLDKVLDEYEEEKRHLQEMANSLPHFKDGREKTVNQQCQNTVVLWENTKALVTECLEQCGRVLELLKQYQNFKSILTTLIQKEESVISLQASYMGKENLKKRIAEIEIVKEEFNEHLEVVDKINQVCKNLQFYLNKMKTFEEPPFEKEANIIVDRWLDINEKTEDYYENLGRALALWD"}, "B3": {"name": "Nes1G SR17–18 (human nesprin-1 giant residues 1976–2200) (domain or fragment, UniProt Q8NF91-1 1976-2200, looked up)", "chain": "B1 chain"}, "B4": {"name": "N-terminally AVI-tagged, biotinylated Nes2G SR11–12 (residues 1425–1649) (domain or fragment, human, UniProt Q8WXH0 1425-1649, looked up)", "chain": "B2 chain", "modifications": "biotin on the AVI sequence"}, "B5": {"name": "Nes1G SR18 (human nesprin-1 giant residues 2076–2200) (domain or fragment, UniProt Q8NF91-1 2076-2200, looked up)", "chain": "ENQGQCCGLIDLMREYQNLKSAVSKVLENASSVIVTRTTIKDQEDLKWAFSKHETAKNKMNYKQKDLDNFTSKGKHLLSELKKIHSSDFSLVKTDMESTVDKWLDVSEKLEENMDRLRVSLSIWD"}, "B6": {"name": "N-terminally AVI-tagged, biotinylated Nes1G SR18 (residues 2076–2200) (domain or fragment, human, UniProt Q8NF91 2076-2200, looked up)", "chain": "B5 chain", "modifications": "biotin on the AVI sequence"}, "B7": {"name": "FHOD1 DAD domain (residues 1052–1164), released from MBP-DAD by 3C protease (domain or fragment, human, UniProt Q9Y613 1052-1164, looked up)", "chain": "SMKSLLTSRPEDTTHNRRSRGMVQSSSPIMPTVGPSTASPEEPPGSSLPSDTSDEIMDLLVQSVTKSSPRALAARERKRSRGNRKSLRRTLKSGLGDDLVQALGLSKGPGLEV"}},
  "key": {"[1]": {"biological_target": "T1, FHOD1-N (human FHOD1 residues 1–339), wild type (human, UniProt Q9Y613 1-339)", "T1 sequence (looked up)": "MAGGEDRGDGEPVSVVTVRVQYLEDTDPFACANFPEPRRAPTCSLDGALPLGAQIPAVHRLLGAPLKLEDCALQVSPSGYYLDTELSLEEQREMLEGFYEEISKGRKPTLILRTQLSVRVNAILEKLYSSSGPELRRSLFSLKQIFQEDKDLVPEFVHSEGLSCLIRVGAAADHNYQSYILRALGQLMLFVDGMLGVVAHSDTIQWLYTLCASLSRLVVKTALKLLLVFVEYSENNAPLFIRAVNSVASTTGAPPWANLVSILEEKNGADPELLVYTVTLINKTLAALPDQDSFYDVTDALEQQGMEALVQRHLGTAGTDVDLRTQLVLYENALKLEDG", "assay": "BLI"}, "[2]": {"biological_target": "T1, FHOD1-N (human FHOD1 residues 1–339), …", "assay": "SEC"}, "[3]": {"biological_target": "T1, FHOD1-N (human FHOD1 residues 1–339), …", "assay": "SEC", "remark": "listed apart in the source"}, "[4]": {"biological_target": "T2, Nes2G SR11–12-FHOD1-N complex (human, UniProt Q9Y613 1-339; Q8WXH0 1425-1649)", "T2 sequence (looked up) 1": "T1 sequence (looked up)", "T2 sequence (looked up) 2": "B2 chain", "assay": "SEC"}},
  "data": [
    {"binder": "B1", "values": [
      {"measurement": "Kd", "setting": "[1]", "value": 85, "unit": "nM"}
    ]},
    {"binder": "B2", "values": [
      {"measurement": "binding result", "setting": "[2]", "value": "binds"}
    ]},
    {"binder": "B3", "values": [
      {"measurement": "binding result", "setting": "[2]", "value": "binds"}
    ]},
    {"binder": "B4", "values": [
      {"measurement": "Kd", "setting": "[1]", "value": 375, "unit": "nM"}
    ]},
    {"binder": "B5", "values": [
      {"measurement": "binding result", "setting": "[2]", "value": "binds"}
    ]},
    {"binder": "B6", "values": [
      {"measurement": "binding result", "setting": "[1]", "value": "binds"}
    ]},
    {"binder": "B7", "values": [
      {"measurement": "binding result", "setting": "[3]", "value": "binds"},
      {"measurement": "binding result", "setting": "[4]", "value": "binds"}
    ]}
  ]
}
